Key:
C57BL/6 mice [1] = assay: LPS acute lung injury mouse model: BAL inflammatory mediators (Milliplex cytokine panel); type: in vivo; details: day 4
Procedure: (§1) After approval from the Tulane University, Institutional Animal Care and Use Committee (protocol ID 607), equal numbers of male and female, 6-8 week old C57BL/6 mice (Charles River Laboratories, Cambridge, Mass.) were given acute lung injury (ALI) via intra-tracheally administered LPS. After obtaining appropriate depth of anesthesia using isoflurane, the high-dose LPS group (HDG) received 100 μg of LPS administered intra-tracheally. Approximately 30 minutes after LPS administration, 4 μg of F-652 was administered via tail vein injection (n=11), then compared to animals receiving sham injection (n=8) with phosphate-buffered saline (PBS). In the low-dose LPS group (LDG), 33.3 μg of LPS was administered intra-tracheally. F-652 was again administered at 30 minutes (n=9) and compared to sham injected animals (n=9). The Interleukin-22:Fc (F-652) protein is a recombinant fusion protein (F-652) (Evive Biotech, Shanghai, China) with two human IL-22 molecules linked to the Fc portion of human immunoglobulin G2, which extends the half-life of the molecule.
Euthanasia and bronchoalveolar lavage (BAL) was carried out on post-injury day 4. After obtaining appropriate levels of anesthesia with inhaled isoflurane, the trachea was cannulated using a 26 gauge needle and BAL was performed with three successive washes using 1 mL of PBS. Next, a small segment of the left lower lobe was removed and saved for RNA isolation. Finally, 1 cc of 4% paraformaldehyde was injected to the lung for fixation.
The BAL fluid was then centrifuged at 500×gravity for 5 minutes. Cells were obtained from the BAL after centrifuge and cell counts performed. Cells were then affixed to glass slides and stained with Wright's stain. To quantify protein in the BAL supernatant, a Bradford protein assay (Bio-Rad Laboratories) was performed. Protein was quantified by measuring absorbance at 595 nm on a BMG Labtech FLUOstar Optima plate reader. In addition, the BAL supernatant was used to measure pro-inflammatory cytokines using a Milliplex Mouse Cytokine/Chemokine Magnetic Bead Panel (Millipore Sigma). The 32 cytokines measured included Eotaxin, Granulocyte Colony-Stimulating Factor (G-CSF), Granulocyte-Monocyte Colony-Stimulating Factor (GM-CSF), Interferon-γ (IFN-γ), Interleukin-1α (IL-1α), IL-1, IL-2, IL-3, IL-4, IL-5, IL-6, IL-7, IL-9, IL-10, IL-12 (p40 segment), IL-12 (p70 segment), IL-13, IL-15, IL-17, Interferon-γ induced protein 10 (IP-10), keratinocyte chemoattractant (KC), leukemia inhibitory factor (LIF), lipopolysaccharide-induced CXC chemokine (LIX), monocyte chemoattractant protein-1 (MCP-1), macrophage colony-stimulating factor (M-CSF), monokine induced by gamma-interferon (MIG), MIP-1α, macrophage inflammatory protein-1β/CCL4 (MIP-1β), MIP-2, regulated upon activation, normal T-cell expressed and presumably secreted (RANTES), tumor necrosis factor-α (TNF-α), vascular endothelial growth factor (VEGF). Human IL-22 was measured using an IL-22 Human ELISA kit (ThermoFisher Scientific). Mouse IL-22 was measured using an IL-22 Mouse/Rat Quantikine ELISA kit (R&D Systems).

C57BL/6 mice [2] = assay: LPS acute lung injury mouse model: BAL protein (Bradford assay); type: in vivo; details: F-652 4 μg i.v., day 4
Procedure: as §1, with “The Interleukin-22:Fc (F-652) protein is a recombinant fusion protein (F-652) (Evive Biotech, Shanghai, China) with two human IL-22 molecules linked to the Fc portion of human immunoglobulin G2, which extends the half-life of the molecule.” left out
The BAL fluid was then centrifuged at 500×gravity for 5 minutes. […] To quantify protein in the BAL supernatant, a Bradford protein assay (Bio-Rad Laboratories) was performed. Protein was quantified by measuring absorbance at 595 nm on a BMG Labtech FLUOstar Optima plate reader. […] Human IL-22 was measured using an IL-22 Human ELISA kit (ThermoFisher Scientific). Mouse IL-22 was measured using an IL-22 Mouse/Rat Quantikine ELISA kit (R&D Systems).

B1: F-652: recombinant IL-22 dimer consisting of two monomeric subunits each comprising a sequence shown in SEQ ID NO: 24 (protein)
chain 1: APISSHCRLDKSNFQQPYITNRTFMLAKEASLADNNTDVRLIGEKLFHGVSMSERCYLMKQVLNFTLEEVLFPQSDRFQPYMQEVVPFLARLSNRLSTCHIEGDDLHIQRNVQKLKDTVKKLGESGEIKAIGELDLLFMSLRNACIGSGGGSGGGGSGGGGSVECPPCPAPPVAGPSVFLFPPKPKDTLMISRTPEVTCVVVDVSHEDPEVQFNWYVDGVEVHNAKTKPREEQFNSTFRVVSVLTVVHQDWLNGKEYKCKVSNKGLPASIEKTISKTKGQPREPQVYTLPPSREEMTKNQVSLTCLVKGFYPSDIAVEWESNGQPENNYKTTPPMLDSDGSFFLYSKLTVDKSRWQQGNVFSCSVMHEALHNHYTQKSLSLSPGK
chain 2: B1 chain 1
modifications: homodimer
Vascular Endothelial Growth Factor in BAL (C57BL/6 mice [1]; high dose LPS, F-652 4 μg i.v.): 12.18 ± 3.03 pg/mL | Interleukin-10 level in BAL fluid (C57BL/6 mice [1]; high-dose LPS, F-652 4 μg tail vein, sham 4.05): 22.10 pg/mL | TNF-α level in BAL fluid (C57BL/6 mice [1]; high-dose LPS, F-652 4 μg tail vein, sham 25.41): 5.87 pg/mL | IL-6 level in BAL fluid (C57BL/6 mice [1]; high-dose LPS, F-652 4 μg tail vein, sham 527.1): 110.6 pg/mL | G-CSF level in BAL fluid (C57BL/6 mice [1]; high-dose LPS, F-652 4 μg tail vein, sham 659.6): 95.14 | C-X-C Motif Chemokine 5 (LIX) in BAL (C57BL/6 mice [1]; low dose LPS, F-652 4 μg i.v.): 9.27 ± 6.04 pg/mL | Eotaxin in BAL (C57BL/6 mice [1]; low dose LPS, F-652 4 μg i.v.): 2.59 ± 1.93 pg/mL | Granulocyte Colony-Stimulating Factor in BAL (C57BL/6 mice [1]; low dose LPS, F-652 4 μg i.v.): 23.49 ± 9.15 pg/mL | Granulocyte-Macrophage Colony-Stimulating Factor in BAL (C57BL/6 mice [1]; low dose LPS, F-652 4 μg i.v.): 0.00 ± 0.00 pg/mL | Interferon-γ in BAL (C57BL/6 mice [1]; low dose LPS, F-652 4 μg i.v.): 1.15 ± 0.42 pg/mL | Interferon-γ-Induced Protein-10 in BAL (C57BL/6 mice [1]; low dose LPS, F-652 4 μg i.v.): 12.94 ± 3.54 pg/mL | Interleukin-1α in BAL (C57BL/6 mice [1]; low dose LPS, F-652 4 μg i.v.): 61.31 ± 12.36 pg/mL | Interleukin-1β in BAL (C57BL/6 mice [1]; low dose LPS, F-652 4 μg i.v.): 0.01 ± 0.01 pg/mL | Interleukin-2 in BAL (C57BL/6 mice [1]; low dose LPS, F-652 4 μg i.v.): 6.77 ± 1.75 pg/mL | Interleukin-3 in BAL (C57BL/6 mice [1]; low dose LPS, F-652 4 μg i.v.): 0.00 ± 0.00 pg/mL | Interleukin-4 in BAL (C57BL/6 mice [1]; low dose LPS, F-652 4 μg i.v.): 0.00 ± 0.00 pg/mL | Interleukin-5 in BAL (C57BL/6 mice [1]; low dose LPS, F-652 4 μg i.v.): 0.00 ± 0.00 pg/mL | Interleukin-6 in BAL (C57BL/6 mice [1]; low dose LPS, F-652 4 μg i.v.): 0.95 ± 0.62 pg/mL | Interleukin-7 in BAL (C57BL/6 mice [1]; low dose LPS, F-652 4 μg i.v.): 0.00 ± 0.00 pg/mL | Interleukin-9 in BAL (C57BL/6 mice [1]; low dose LPS, F-652 4 μg i.v.): 154.50 ± 37.46 pg/mL | Interleukin-10 in BAL (C57BL/6 mice [1]; low dose LPS, F-652 4 μg i.v.): 19.91 ± 6.56 pg/mL | Interleukin-12 (p40) in BAL (C57BL/6 mice [1]; low dose LPS, F-652 4 μg i.v.): 6.87 ± 1.88 pg/mL | Interleukin-12 (p70) in BAL (C57BL/6 mice [1]; low dose LPS, F-652 4 μg i.v.): 0.00 ± 0.00 pg/mL | Interleukin-13 in BAL (C57BL/6 mice [1]; low dose LPS, F-652 4 μg i.v.): 2.69 ± 0.93 pg/mL | Interleukin-15 in BAL (C57BL/6 mice [1]; low dose LPS, F-652 4 μg i.v.): 0.00 ± 0.00 pg/mL | Interleukin-17 in BAL (C57BL/6 mice [1]; low dose LPS, F-652 4 μg i.v.): 0.40 ± 0.06 pg/mL | Keratinocyte Chemoattractant/Growth Regulated Oncogene in BAL (C57BL/6 mice [1]; low dose LPS, F-652 4 μg i.v.): 9.11 ± 2.76 pg/mL | Macrophage Colony-Stimulating Factor in BAL (C57BL/6 mice [1]; low dose LPS, F-652 4 μg i.v.): 0.00 ± 0.00 pg/mL | Macrophage Inflammatory Protein-1α in BAL (C57BL/6 mice [1]; low dose LPS, F-652 4 μg i.v.): 15.62 ± 2.03 pg/mL | Macrophage Inflammatory Protein-1β in BAL (C57BL/6 mice [1]; low dose LPS, F-652 4 μg i.v.): 0.00 ± 0.00 pg/mL | Macrophage Inflammatory Protein-2 in BAL (C57BL/6 mice [1]; low dose LPS, F-652 4 μg i.v.): 20.45 ± 10.88 pg/mL | Monocyte Chemoattractant Protein in BAL (C57BL/6 mice [1]; low dose LPS, F-652 4 μg i.v.): 0.00 ± 0.00 pg/mL | Monocyte Induced by Interferon-γ in BAL (C57BL/6 mice [1]; low dose LPS, F-652 4 μg i.v.): 10.52 ± 4.73 pg/mL | Tumor Necrosis Factor-α in BAL (C57BL/6 mice [1]; low dose LPS, F-652 4 μg i.v.): 3.01 ± 1.79 pg/mL | Vascular Endothelial Growth Factor in BAL (C57BL/6 mice [1]; low dose LPS, F-652 4 μg i.v.): 3.01 ± 0.50 pg/mL | BAL protein (C57BL/6 mice [2]; high-dose LPS injury, sham 0.38): 0.55 µg/µL | BAL protein (C57BL/6 mice [2]; low-dose LPS injury, sham 0.25): 0.15 µg/µL

Source: patent publication US20230079150A1, “METHODS FOR PREVENTION OR TREATMENT OF VIRUS-INDUCED ORGAN INJURY OR FAILURE WITH IL-22 DIMER” (priority 2020, published 2023)
